Data published in article PMC4814300 (Cell reports, 2016).

T1: Ven-SH3 (Gads, aa.256-322) (mouse, UniProt O89100 256-322)
T1 sequence (looked up): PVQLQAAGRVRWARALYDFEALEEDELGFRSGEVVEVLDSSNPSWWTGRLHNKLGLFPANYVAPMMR

B1: Cer-Gab1, aa.515-527 (peptide, UniProt Q13480 515-527, looked up)
chain: EPPPVDRNLKPDR
B2: Cer-USP8, aa.403-415 (peptide, UniProt P40818 403-415, looked up)
chain: NVPQIDRTKKPAV
B3: Cer-SLP-76, aa.231-243 (peptide, UniProt Q13094 231-243, looked up)
chain: PAPSIDRSTKPPL
B4: Cer-SLP-76 (K240R), aa.231-243 (peptide, UniProt Q13094 231-243, looked up)
chain: PAPSIDRSTRPPL
B5: Cer-SLP-76 (D236K), aa.231-243 (peptide, UniProt Q13094 231-243, looked up)
chain: PAPSIKRSTKPPL

target: T1, Ven-SH3 (Gads, aa.256-322); assay: FRET or BRET

Row | Kd [µM] | Binder
1 | 1 | B1
2 | 4 | B2
3 | 0.8 | B3
4 | 24 | B4
5 | 7 | B5
